The record followed here is PMC8174753.

The test system of the data set is T1, GtrR (Burkholderia cenocepacia H111), ORF:a5d7dc98.
T1 sequence: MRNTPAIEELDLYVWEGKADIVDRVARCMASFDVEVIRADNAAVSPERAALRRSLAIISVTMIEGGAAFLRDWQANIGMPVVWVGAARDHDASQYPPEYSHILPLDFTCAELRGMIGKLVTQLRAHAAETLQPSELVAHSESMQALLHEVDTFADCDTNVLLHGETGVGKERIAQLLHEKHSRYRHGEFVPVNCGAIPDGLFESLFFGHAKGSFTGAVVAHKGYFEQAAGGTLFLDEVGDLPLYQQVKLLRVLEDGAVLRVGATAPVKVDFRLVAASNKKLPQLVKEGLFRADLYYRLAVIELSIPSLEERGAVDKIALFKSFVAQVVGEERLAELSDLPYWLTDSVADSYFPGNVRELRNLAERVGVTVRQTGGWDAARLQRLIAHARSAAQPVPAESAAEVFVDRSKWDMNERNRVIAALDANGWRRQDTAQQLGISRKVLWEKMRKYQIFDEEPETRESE
Put plainly: EMSA. Conditions: Binding reactions per manufacturer's instructions (Thermo), 3'-biotin probes, 5% polyacrylamide gel; buffer, salt, pH and temperature not stated. For orientation: A gel shift assay detects complexes by their altered migration in electrophoresis.

With “GGCTTGCGTATTTCTGGCCCGGTTGATTGATTTTGGTTGTGATTTTTTGCCACGCAACGTCGAAAACGCATCGCGCGGCCCCAGTTCGCTCTCGTATCGAAAATGAGATTTTCGATTTCGCAGACAATTGTTAAATGCGGAACCGATATCCGTCAACCTGAGAAAACGGGCGGCTTGCGTAAAATCGAAATCGCGGGTACCGGTTTAAGGTTGCAATGCAGCA (double strand) [Bcal3178 promoter 223 bp]”, the binding entry is “no binding”.
